Experimental data as given in patent US20220389118A1 (Chugai, published 2022).

What was measured:
[1] = molecular target: T1, human FcγRIIb extracellular domain with C-terminal His tag (human, UniProt P31994 43-217); test: SPR (Biacore)
T1 construct: extracellular domain
T1 sequence (looked up): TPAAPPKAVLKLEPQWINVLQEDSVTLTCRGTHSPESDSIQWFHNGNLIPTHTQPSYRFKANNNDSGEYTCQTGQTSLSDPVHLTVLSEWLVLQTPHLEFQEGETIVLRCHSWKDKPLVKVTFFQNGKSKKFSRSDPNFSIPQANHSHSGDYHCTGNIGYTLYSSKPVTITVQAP

[2] = molecular target: T2, human FcγRIa extracellular domain with C-terminal His tag (human, UniProt P12314 16-292); test: SPR (Biacore)
T2 construct: extracellular domain
T2 sequence (P12314 16-292): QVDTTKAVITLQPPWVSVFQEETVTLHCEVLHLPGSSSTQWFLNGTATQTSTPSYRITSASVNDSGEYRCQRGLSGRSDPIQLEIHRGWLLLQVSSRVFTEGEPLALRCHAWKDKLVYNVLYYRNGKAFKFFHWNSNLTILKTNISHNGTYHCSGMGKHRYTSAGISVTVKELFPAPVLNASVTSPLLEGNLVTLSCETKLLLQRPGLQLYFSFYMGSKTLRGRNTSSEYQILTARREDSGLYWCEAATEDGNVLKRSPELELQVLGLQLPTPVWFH

[3] = molecular target: T3, human FcγRIIa type R extracellular domain with C-terminal His tag (human, UniProt P12318 34-217); test: SPR (Biacore)
T3 construct: extracellular domain; also called FcγRIIaR; FcγRIIa(R)
T3 sequence (looked up): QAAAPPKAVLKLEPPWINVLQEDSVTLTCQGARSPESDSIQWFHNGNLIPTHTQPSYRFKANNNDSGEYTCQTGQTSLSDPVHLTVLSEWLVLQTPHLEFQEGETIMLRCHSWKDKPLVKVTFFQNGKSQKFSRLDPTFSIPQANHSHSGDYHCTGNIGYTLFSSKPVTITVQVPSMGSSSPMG

[4] = molecular target: T1, human FcγRIIb extracellular domain with …; test: SPR (Biacore), parent IL6R-B3/IL6R-L
[5] = molecular target: T3, human FcγRIIa type R extracellular …; test: SPR (Biacore), parent IL6R-B3/IL6R-L
[6] = molecular target: T1, human FcγRIIb extracellular domain with …; test: SPR (Biacore), ratio of KDs
[7] = molecular target: T4, human FcγRIIb extracellular domain with C-terminal His tag (human, UniProt P31994 43-217); test: SPR (Biacore), antibody captured, FcγR as analyte
T4 construct: extracellular domain; also called FcgRIIb
T4 sequence (looked up): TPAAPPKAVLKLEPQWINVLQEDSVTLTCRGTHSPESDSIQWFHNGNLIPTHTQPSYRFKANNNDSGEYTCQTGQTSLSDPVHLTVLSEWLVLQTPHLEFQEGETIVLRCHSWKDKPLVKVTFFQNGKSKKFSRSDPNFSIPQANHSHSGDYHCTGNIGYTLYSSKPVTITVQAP

B1: IL6R-BP508/IL6R-L (antibody, human IgG1, kappa)
heavy: QVQLQESGPGLVKPSETLSLTCAVSGHSISHDHAWSWVRQPPGEGLEWIGFISYSGITNYNPSLQGRVTISRDNSKNTLYLQMNSLRAEDTAVYYCARSLARTTAMDYWGEGTLVTVSSASTKGPSVFPLAPSSKSTSGGTAALGCLVKDYFPEPVTVSWNSGALTSGVHTFPAVLQSSGLYSLSSVVTVPSSSLGTQTYICNVNHKPSNTKVDKKVEPKSCDKTHTCPPCPAPDLLGDDSVFLFPPKPKDTLMISRTPEVTCVVIDVAEEDGPVKFNWYVDGVEVHNAKTKPREEQDNSTYRVVSVLTVLHQDWLNGKEYKCKVSNKALPAPIEKTISKAKGQPREPQVYTLPPSRDELTKNQVSLTCLVKGFYPSDIAVEWESNGQPENNYKTTPPVLDSDGSFFLYSKLTVDKSRWQQGNVFSCSVMHEALHNHYTQESLSLSP
light: not shown
notes: copies: 2 + 2
Kd [1]: 21 nM
Kd [2]: 1.4 nM
Kd [3]: 540 nM
KD(IIb) parent/KD(IIb) altered polypeptide [4]: 149
KD(IIaR) parent/KD(IIaR) altered polypeptide [5]: 2
KD(IIaH)/KD(IIb) [6]: 962
KD(IIaR)/KD(IIb) [6]: 26

B2: IL6R-BP549/IL6R-L (antibody, human IgG1, kappa)
heavy: QVQLQESGPGLVKPSETLSLTCAVSGHSISHDHAWSWVRQPPGEGLEWIGFISYSGITNYNPSLQGRVTISRDNSKNTLYLQMNSLRAEDTAVYYCARSLARTTAMDYWGEGTLVTVSSASTKGPSVFPLAPSSKSTSGGTAALGCLVKDYFPEPVTVSWNSGALTSGVHTFPAVLQSSGLYSLSSVVTVPSSSLGTQTYICNVNHKPSNTKVDKKVEPKSCDKTHTCPPCPAPELLGDDSVFLFPPKPKDTLMISRTPEVTCVVVDVGEEDGEVKFNWYVDGVEVHNAKTKPREEQYNSTYRVVSVLTVLHQDWLNGKEYKCKVSNKALPRPIEKTISKAKGQPREPQVYTLPPSRDELTKNQVSLTCLVKGFYPSDIAVEWESNGQPENNYKTTPPVLDSDGSFFLYSKLTVDKSRWQQGNVFSCSVMHEALHNHYTQESLSLSP
light: not shown
notes: copies: 2 + 2
Kd [1]: 16 nM
Kd [2]: 18 nM
Kd [3]: 570 nM
KD(IIb) parent/KD(IIb) altered polypeptide [4]: 196
KD(IIaR) parent/KD(IIaR) altered polypeptide [5]: 1.9
KD(IIaH)/KD(IIb) [6]: 696
KD(IIaR)/KD(IIb) [6]: 35.9

B3: IL6R-2B169/IL6R-L (antibody, human IgG1, kappa)
heavy: QVQLQESGPGLVKPSETLSLTCAVSGHSISHDHAWSWVRQPPGEGLEWIGFISYSGITNYNPSLQGRVTISRDNSKNTLYLQMNSLRAEDTAVYYCARSLARTTAMDYWGEGTLVTVSSASTKGPSVFPLAPSSKSTSGGTAALGCLVKDYFPEPVTVSWNSGALTSGVHTFPAVLQSSGLYSLSSVVTVPSSSLGTQTYICNVNHKPSNTKVDKKVEPKSCDKTHTCPPCPAPELLGGDSVFLFPPKPKDTLMISRTPEVTCVVVDVSHEDPEVKFNWYVDGVEVHNAKTKPREEQYNSTYRVVSVLTVLHQDWLNGKEYKCKISNKALPAPIEKTISKAKGQPREPQVYTLPPSRDELTKNQVSLTCLVKGFYPSDIAVEWESNGQPENNYKTTPPVLDSDGSFFLYSKLTVDKSRWQQGNVFSCSVMHEALHNHYTQESLSLSP
light: not shown
notes: IgG1 type
KD(IIb) of parent polypeptide/KD(IIb) of altered polypeptide [7]: 2.6 fold vs IL6R-B3/IL6R-L

B4: IL6R-BP110/IL6R-L (antibody, human IgG1, kappa)
heavy: QVQLQESGPGLVKPSETLSLTCAVSGHSISHDHAWSWVRQPPGEGLEWIGFISYSGITNYNPSLQGRVTISRDNSKNTLYLQMNSLRAEDTAVYYCARSLARTTAMDYWGEGTLVTVSSASTKGPSVFPLAPSSKSTSGGTAALGCLVKDYFPEPVTVSWNSGALTSGVHTFPAVLQSSGLYSLSSVVTVPSSSLGTQTYICNVNHKPSNTKVDKKVEPKSCDKTHTCPPCPAPELLGGDSVFLFPPKPKDTLMISRTPEVTCVVVDVSNEDPEVKFNWYVDGVEVHNAKTKPREEQYNSTYRVVSVLTVLHQDWLNGKEYKCKVSNKALPAPIEKTISKAKGQPREPQVYTLPPSRDELTKNQVSLTCLVKGFYPSDIAVEWESNGQPENNYKTTPPVLDSDGSFFLYSKLTVDKSRWQQGNVFSCSVMHEALHNHYTQESLSLSP
light: not shown
notes: IgG1 type
KD(IIb) of parent polypeptide/KD(IIb) of altered polypeptide [7]: 2.1 fold vs IL6R-B3/IL6R-L

B5: IL6R-2B128/IL6R-L (antibody, human IgG1, kappa)
heavy: QVQLQESGPGLVKPSETLSLTCAVSGHSISHDHAWSWVRQPPGEGLEWIGFISYSGITNYNPSLQGRVTISRDNSKNTLYLQMNSLRAEDTAVYYCARSLARTTAMDYWGEGTLVTVSSASTKGPSVFPLAPSSKSTSGGTAALGCLVKDYFPEPVTVSWNSGALTSGVHTFPAVLQSSGLYSLSSVVTVPSSSLGTQTYICNVNHKPSNTKVDKKVEPKSCDKTHTCPPCPAPELLGGDSVFLFPPKPKDTLMISRTPEVTCVVVDVSHEDPEVKFNWYVDGVEVHNAKTKPREEQDNSTYRVVSVLTVLHQDWLNGKEYKCKVSNKALPAPIEKTISKAKGQPREPQVYTLPPSRDELTKNQVSLTCLVKGFYPSDIAVEWESNGQPENNYKTTPPVLDSDGSFFLYSKLTVDKSRWQQGNVFSCSVMHEALHNHYTQESLSLSP
light: not shown
notes: IgG1 type
KD(IIb) of parent polypeptide/KD(IIb) of altered polypeptide [7]: 2.1 fold vs IL6R-B3/IL6R-L

B6: IL6R-BP509/IL6R-L (antibody, human IgG1, kappa)
heavy: QVQLQESGPGLVKPSETLSLTCAVSGHSISHDHAWSWVRQPPGEGLEWIGFISYSGITNYNPSLQGRVTISRDNSKNTLYLQMNSLRAEDTAVYYCARSLARTTAMDYWGEGTLVTVSSASTKGPSVFPLAPSSKSTSGGTAALGCLVKDYFPEPVTVSWNSGALTSGVHTFPAVLQSSGLYSLSSVVTVPSSSLGTQTYICNVNHKPSNTKVDKKVEPKSCDKTHTCPPCPAPDLLGDDSVFLFPPKPKDTLMISRTPEVTCVVIDVAEEDGDVKFNWYVDGVEVHNAKTKPREEQDNSTYRVVSVLTVLHQDWLNGKEYKCKVSNKALPAPIEKTISKAKGQPREPQVYTLPPSRDELTKNQVSLTCLVKGFYPSDIAVEWESNGQPENNYKTTPPVLDSDGSFFLYSKLTVDKSRWQQGNVFSCSVMHEALHNHYTQESLSLSP
light: not shown
notes: copies: 2 + 2
Kd [1]: 18 nM
Kd [2]: 1.1 nM
Kd [3]: 520 nM
KD(IIb) parent/KD(IIb) altered polypeptide [4]: 174
KD(IIaR) parent/KD(IIaR) altered polypeptide [5]: 2.1
KD(IIaH)/KD(IIb) [6]: 444
KD(IIaR)/KD(IIb) [6]: 29.2

B7: IL6R-2B002/IL6R-L (antibody, human IgG1, kappa)
heavy: QVQLQESGPGLVKPSETLSLTCAVSGHSISHDHAWSWVRQPPGEGLEWIGFISYSGITNYNPSLQGRVTISRDNSKNTLYLQMNSLRAEDTAVYYCARSLARTTAMDYWGEGTLVTVSSASTKGPSVFPLAPSSKSTSGGTAALGCLVKDYFPEPVTVSWNSGALTSGVHTFPAVLQSSGLYSLSSVVTVPSSSLGTQTYICNVNHKPSNTKVDKKVEPKSCDKTHTCPPCPAPDLLGGDSVFLFPPKPKDTLMISRTPEVTCVVVDVSHEDPEVKFNWYVDGVEVHNAKTKPREEQYNSTYRVVSVLTVLHQDWLNGKEYKCKVSNKALPAPIEKTISKAKGQPREPQVYTLPPSRDELTKNQVSLTCLVKGFYPSDIAVEWESNGQPENNYKTTPPVLDSDGSFFLYSKLTVDKSRWQQGNVFSCSVMHEALHNHYTQESLSLSP
light: not shown
notes: IgG1 type
KD(IIb) of parent polypeptide/KD(IIb) of altered polypeptide [7]: 3.3 fold vs IL6R-B3/IL6R-L

B8: IL6R-BP112/IL6R-L (antibody, human IgG1, kappa)
heavy: QVQLQESGPGLVKPSETLSLTCAVSGHSISHDHAWSWVRQPPGEGLEWIGFISYSGITNYNPSLQGRVTISRDNSKNTLYLQMNSLRAEDTAVYYCARSLARTTAMDYWGEGTLVTVSSASTKGPSVFPLAPSSKSTSGGTAALGCLVKDYFPEPVTVSWNSGALTSGVHTFPAVLQSSGLYSLSSVVTVPSSSLGTQTYICNVNHKPSNTKVDKKVEPKSCDKTHTCPPCPAPELLGGDSVFLFPPKPKDTLMISRTPEVTCVVVDVSHEDGEVKFNWYVDGVEVHNAKTKPREEQYNSTYRVVSVLTVLHQDWLNGKEYKCKVSNKALPAPIEKTISKAKGQPREPQVYTLPPSRDELTKNQVSLTCLVKGFYPSDIAVEWESNGQPENNYKTTPPVLDSDGSFFLYSKLTVDKSRWQQGNVFSCSVMHEALHNHYTQESLSLSP
light: not shown
notes: IgG1 type
KD(IIb) of parent polypeptide/KD(IIb) of altered polypeptide [7]: 9.7 fold vs IL6R-B3/IL6R-L
